The values that follow come from PMC11459929, “Novel humanized anti-PcrV monoclonal antibody COT-143 protects mice from lethal Pseudomonas aeruginosa infection via inhibition of toxin translocation by the type III secretion system” (Antimicrobial Agents and Chemotherapy, 2024).

The test deals with T1, PcrV (130–263) (Pseudomonas aeruginosa, UniProt G3XD49).
T1 construct: PcrV, type III secretion system needle-tip protein of Pseudomonas aeruginosa, residues 130Ala-263Asn; also called recombinant PcrV (130–263); partial PcrV (130–263); source: E. coli, purified (Profinity eXact Fusion-Tag system, Superdex75)
Briefly: crystal structure; h1F3 Fab and PcrV (130-263) mixed at a molar ratio of 1:2 in TBS with 0.5 mM TCEP at 4°C overnight, equimolar complex separated by Superdex200; crystals by sitting drop in 0.1 M acetate-Na pH 5.6, 24% PEG3350, 0.125 M CaCl2 at 20°C. The settings on record: both partners purified.

B1: h1F3 Fab (Fab, V domains shown)
VH: QVQLVQSGAEVKKPGASVKVSCKASGYSFTSYWMHWVRQAPGQGLEWMGEINPSNGRTNYNEKFNTRVTMTRDTSTSTVYMELSSLRSEDTAVYYCVLYGNYVVYYTMDYWGQGTTVTVSS
VL: DIQLTQSPSFLSASVGDRVTITCSASTSVSYMEWYQQKPGKAPKLLIYTTSKLASGVPSRFSGSGSGTEFTLTISSLQPEDFATYYCHQWRNYPFTFGQGTKLEIK
notes: Fab part of the heavy chain of h1F3 (humanized from mouse m1F3 by CDR grafting with H93 and H94 back-mutation, human IgG4Pro format); light chain of h1F3 (has the mouse residue Ala at L128); also called Fab fragment of h1F3; pre-optimized COT-143 (Fab); source: papain digestion of h1F3, purified (HiTrap Protein A flow-through, Mono S, Superdex200)
As for B1, the binding result is recorded as “binds”.
